From patent US20110117021A1 (BIOTIE THERAPIES, published 2011) come the findings set out here.

Positions count from the first letter of the chain named.

The target in assay [1] is T1, recombinant human Vascular Adhesion Protein-1 (rhVAP-1), purified from CHO cells (human, UniProt Q16853 1-763, limits assumed).
T1 construct: also called recombinant human VAP-1
T1 sequence (looked up): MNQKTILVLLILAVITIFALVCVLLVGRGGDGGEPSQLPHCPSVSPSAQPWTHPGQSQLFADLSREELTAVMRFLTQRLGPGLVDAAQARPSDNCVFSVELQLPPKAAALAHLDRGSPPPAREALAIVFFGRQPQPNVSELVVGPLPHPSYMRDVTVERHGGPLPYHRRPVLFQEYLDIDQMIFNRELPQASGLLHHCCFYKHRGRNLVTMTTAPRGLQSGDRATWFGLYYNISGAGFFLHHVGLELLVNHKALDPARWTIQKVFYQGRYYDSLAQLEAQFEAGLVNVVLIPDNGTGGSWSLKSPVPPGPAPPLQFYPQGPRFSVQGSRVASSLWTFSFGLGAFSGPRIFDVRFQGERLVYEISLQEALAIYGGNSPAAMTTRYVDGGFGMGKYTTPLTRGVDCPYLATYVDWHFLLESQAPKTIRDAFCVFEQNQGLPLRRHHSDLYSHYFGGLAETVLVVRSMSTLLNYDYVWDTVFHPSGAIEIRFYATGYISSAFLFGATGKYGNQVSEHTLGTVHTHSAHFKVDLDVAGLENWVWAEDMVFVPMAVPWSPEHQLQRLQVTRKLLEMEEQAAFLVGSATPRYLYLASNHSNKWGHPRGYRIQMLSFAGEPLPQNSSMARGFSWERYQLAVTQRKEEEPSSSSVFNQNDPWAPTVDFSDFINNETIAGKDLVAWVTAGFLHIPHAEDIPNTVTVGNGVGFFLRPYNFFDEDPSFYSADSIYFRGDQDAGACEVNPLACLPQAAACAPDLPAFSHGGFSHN
The assay is described as follows: time-resolved immunofluorometric assay, plate coated with rhVAP-1, europium-conjugated anti-human antibody detection. The protocol: A time-resolved immunofluorometric assay was used quantitatively to examine the binding of 5F12, 4B3, 3F10, 8A4 and 8C10 to rhVAP-1. A microtiter plate was coated with rhVAP-1 and then blocked with bovine serum albumin solution. An amount of antibody between 2 and 4320 ng/ml was subsequently added to bind to rhVAP-1 and the bound antibody detected by a europium-conjugated mouse anti-human antibody (Perkin Elmer Inc.). The label was detected by measuring the time-resolved fluorescence (VICTOR³™ multilabel counter, PerkinElmer Inc.) at 615 nm. The fluorescence counts directly correlate with how much antibody was bound to its target. The sample data were then analyzed in comparison to the standard curve of a reference.

Assay [2] addresses T1, recombinant human Vascular Adhesion …. Put plainly: Biacore SPR, BTT-1023 captured on biotinylated protein G' on a streptavidin chip, rhVAP-1 as analyte. The protocol: Constant amounts of rhVAP-1 were used as an analyte for saturating concentration of mAbs (ligands). Experiments were performed using BIALITE® equipment (BIACORE® AB) and the data analyzed using Biacore software.
In general terms: SPR reads the build-up and loss of mass on a sensor chip optically.

Assay [3] has the same target. Put plainly: time-resolved immunofluorometric assay, plate coated with rhVAP-1, europium-conjugated anti-human antibody detection. The protocol:
A microtiter plate was coated with rhVAP-1 and then blocked with bovine serum albumin solution. […] The label was detected by measuring the time-resolved fluorescence (VICTOR³™ multilabel counter, PerkinElmer Inc.) at 615 nm. […] The sample data were then analyzed in comparison to the standard curve of a reference.
The source holds these as a separate data set.

B1: fully human anti-VAP-1 monoclonal antibody 8A4 (hybridoma-derived) (antibody, human IgG1, V domains shown)
VH: EVQLVESGGGLVQPGGSLRLSCAASGFIFSNYWMSWVRQAPGKGLEWVANIKQDGSEKYYVDSVRGRFTVSRDNAKNSLYLQMNSLRAEDTAVYYCARDYFGSGTYFFYFDYWGQGTLVTFSS
VL: EIVLTQSPATLSLSPGERATLSCRASQSVSSYLAWYQQKPGQAPRLLIYDASNRATGIPARFSGSGSGTDFTLTISSLEPEDFAVYYCQQRSNWPLTFGGGTKVEIK
One may read the Kd as the equilibrium constant for the complex coming apart. On to B1, for which the Kd in assay [1] was 0.28 nM.

B2: fully human anti-VAP-1 monoclonal antibody 4B3 (hybridoma-derived) (antibody, human IgG1, V domains shown)
VH: EVQLVQSGGGLVHPGGSLRLSCAGSGFPVSSYGMHWVRQAPGKGLEWVSAIGVGGGTYHVDSVKGRFTISRDNAKNSLYLQMNSLRAGDMAVYYCARDPGFGEVYFDYWGQGTLVTVSS
VL: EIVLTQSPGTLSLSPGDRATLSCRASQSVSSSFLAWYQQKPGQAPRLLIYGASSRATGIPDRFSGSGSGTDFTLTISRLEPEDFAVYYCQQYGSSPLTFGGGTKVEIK
Consider B2, for which the Kd in assay [1] worked out at 0.31 nM.

B3: fully human anti-VAP-1 monoclonal antibody 5F12 (hybridoma-derived) (antibody, V domains shown)
VH: QVQLVDSGGDVVQPGRSLRLSCAASGFSFSRSGIHWVRQAPGKGLEWVAVIWYDGIYKYYADSVKGRFTISRDNSKNTLYLQMNSLRAEDTAVYYCAREKNWGIDYWGQGTLVTVSS
VL: DIQMTQSPSSLSASVGDRVTITCRASQGISSWLAWYQQKPEKAPKSLIYGASSLQSGVPSRFSGSGSGTDFTLTISSLQPEDFATYYCQQYNSYPRTFGQGTKVEIK
For the molecule B3, the Kd in assay [1] turned out to be 0.65 nM.

B4: fully human anti-VAP-1 monoclonal antibody 8C10 (hybridoma-derived) (antibody, human IgG1, V domains shown)
VH: QVQLVESGGGVVQPGRSLRLSCAASGFTFFSYAMHWVRQTPGKGLEWVAVIWFDGSNENYVDSVKGRFTISRDNSKNTLYLQMNTLRAEDTAVYYCARDAWSYFDYWGQGTLVTVSS
VL: VIQLTQSPSSLSASVGDRVTITCRASQGISRALAWYQQKPGKGPKLLIYDASSLESGVPSRFSGSGSGTDFTLTISSLQPEDFATYYCQQFNSYPLTFGGGTKVEIK
As to B4, the Kd in assay [1] was found to be 0.21 nM.

B5: fully human anti-VAP-1 monoclonal antibody 3F10 (hybridoma-derived) (antibody, human IgG1, V domains shown)
VH: B4 VH with F30S, T40A, I51L, N59D, V61A, T85S, A100G, S102G
VL: B4 VL with V1A, G43A, S53N, S56R, Y94F
Turning to B5, the Kd in assay [1] is 0.25 nM.

B6: recombinant fully human anti-VAP-1 antibody r8C10 (BTT-1023) (antibody, human IgG4 S228P, kappa, V domains shown)
VH: B4 VH
VL: VIQLTQSPSSLSASVGDRVTITCRASQGISRALAWYQQKPGKGPKLLIYDASSLESGVPSRFSGSGSGTDFTLTISSLQPEDFATYYCQQFNSYPLTFGGGTKVEIKR
notes: also called recombinant 8C10
In the case of B6, the Kd in assay [2] came to 0.13 nM; in assay [3], 0.38 nM.
